± gives the uncertainty stated by the source.
B1: Receptor-interacting serine/threonine-protein kinase 2, residues 438 to 518; numbered along this chain, O43353 (parent)
chain: QWIQSKREDIVNQMTEACLNQSLDALLSRDLIMKEDYELVSTKPTRTSKVRQLLDTTDIQGEEFAKVIVQKLKDNKQMGLQ

Variants of: B1
Assay: abundance fitness (aPCA) (normalised: wild type 0, dead -1); higher = more abundant; growth selection in yeast, the domain comes from the species named
Settings: Homo sapiens

Row | Variant | abundance fitness
1 | QWIQSKREDIVNQMTEACLNQSLDALLSRDLLMKEDYELVSTKPTRTSKVRQLLDTTDIQGEEFAKVIVQKLKDNKQMGLQ | -0.029 ± 0.055
2 | QWIQSKREDIVNQMTEACLNQSLDALLSRDLPMKEDYELVSTKPTRTSKVRQLLDTTDIQGEEFAKVIVQKLKDNKQMGLQ | -0.437 ± 0.071
3 | QWIQSKREDIVNQMTEACLNQSLDALLSRDLMMKEDYELVSTKPTRTSKVRQLLDTTDIQGEEFAKVIVQKLKDNKQMGLQ | -0.183 ± 0.11
4 | QWIQSKREDIVNQMTEACLNQSLDALLSRDLHMKEDYELVSTKPTRTSKVRQLLDTTDIQGEEFAKVIVQKLKDNKQMGLQ | -0.527 ± 0.13
5 | QWIQSKREDIVNQMTEACLNQSLDALLSRDLCMKEDYELVSTKPTRTSKVRQLLDTTDIQGEEFAKVIVQKLKDNKQMGLQ | -0.679 ± 0.14
6 | QWIQSKREDIVNQMTEACLNQSLDALLSRDLKMKEDYELVSTKPTRTSKVRQLLDTTDIQGEEFAKVIVQKLKDNKQMGLQ | -0.94 ± 0.42
7 | QWIQSKREDIVNQMTEACLNQSLDALLSRDLAMKEDYELVSTKPTRTSKVRQLLDTTDIQGEEFAKVIVQKLKDNKQMGLQ | -0.686 ± 0.11
8 | QWIQSKREDIVNQMTEACLNQSLDALLSRDLTMKEDYELVSTKPTRTSKVRQLLDTTDIQGEEFAKVIVQKLKDNKQMGLQ | -0.594 ± 0.12
9 | QWIQSKREDIVNQMTEACLNQSLDALLSRDLGMKEDYELVSTKPTRTSKVRQLLDTTDIQGEEFAKVIVQKLKDNKQMGLQ | -0.707 ± 0.094
10 | QWIQSKREDIVNQMTEACLNQSLDALLSRDLSMKEDYELVSTKPTRTSKVRQLLDTTDIQGEEFAKVIVQKLKDNKQMGLQ | -0.593 ± 0.078
11 | QWIQSKREDIVNQMTEACLNQSLDALLSRDLQMKEDYELVSTKPTRTSKVRQLLDTTDIQGEEFAKVIVQKLKDNKQMGLQ | -0.273 ± 0.14
12 | QWIQSKREDIVNQMTEACLNQSLDALLSRDLFMKEDYELVSTKPTRTSKVRQLLDTTDIQGEEFAKVIVQKLKDNKQMGLQ | -0.842 ± 0.23
13 | QWIQSKREDIVNQMTEACLNQSLDALLSRDLVMKEDYELVSTKPTRTSKVRQLLDTTDIQGEEFAKVIVQKLKDNKQMGLQ | -0.373 ± 0.085
14 | QWIQSKREDIVNQMTEACLNQSLDALLSRDLRMKEDYELVSTKPTRTSKVRQLLDTTDIQGEEFAKVIVQKLKDNKQMGLQ | -0.592 ± 0.071
15 | QWIQSKREDIVNQMTEACLNQSLDALLSRDLWMKEDYELVSTKPTRTSKVRQLLDTTDIQGEEFAKVIVQKLKDNKQMGLQ | -0.442 ± 0.14
16 | QWIQSKREDIVNQMTEACLNQSLDALLSRDKIMKEDYELVSTKPTRTSKVRQLLDTTDIQGEEFAKVIVQKLKDNKQMGLQ | -0.574 ± 0.2
17 | QWIQSKREDIVNQMTEACLNQSLDALLSRDDIMKEDYELVSTKPTRTSKVRQLLDTTDIQGEEFAKVIVQKLKDNKQMGLQ | -0.456 ± 0.2

Row | Variant | abundance fitness
18 | QWIQSKREDIVNQMTEACLNQSLDALLSRDVIMKEDYELVSTKPTRTSKVRQLLDTTDIQGEEFAKVIVQKLKDNKQMGLQ | -0.588 ± 0.13
19 | QWIQSKREDIVNQMTEACLNQSLDALLSRDYIMKEDYELVSTKPTRTSKVRQLLDTTDIQGEEFAKVIVQKLKDNKQMGLQ | -0.601 ± 0.24
20 | QWIQSKREDIVNQMTEACLNQSLDALLSRDMIMKEDYELVSTKPTRTSKVRQLLDTTDIQGEEFAKVIVQKLKDNKQMGLQ | -0.204 ± 0.13
21 | QWIQSKREDIVNQMTEACLNQSLDALLSRDIIMKEDYELVSTKPTRTSKVRQLLDTTDIQGEEFAKVIVQKLKDNKQMGLQ | -0.973 ± 0.45
22 | QWIQSKREDIVNQMTEACLNQSLDALLSRDSIMKEDYELVSTKPTRTSKVRQLLDTTDIQGEEFAKVIVQKLKDNKQMGLQ | -0.608 ± 0.048
23 | QWIQSKREDIVNQMTEACLNQSLDALLSRDRIMKEDYELVSTKPTRTSKVRQLLDTTDIQGEEFAKVIVQKLKDNKQMGLQ | -0.732 ± 0.087
24 | QWIQSKREDIVNQMTEACLNQSLDALLSRDGIMKEDYELVSTKPTRTSKVRQLLDTTDIQGEEFAKVIVQKLKDNKQMGLQ | -0.798 ± 0.087
25 | QWIQSKREDIVNQMTEACLNQSLDALLSRDHIMKEDYELVSTKPTRTSKVRQLLDTTDIQGEEFAKVIVQKLKDNKQMGLQ | -0.448 ± 0.39
26 | QWIQSKREDIVNQMTEACLNQSLDALLSRDPIMKEDYELVSTKPTRTSKVRQLLDTTDIQGEEFAKVIVQKLKDNKQMGLQ | -0.588 ± 0.063
27 | QWIQSKREDIVNQMTEACLNQSLDALLSRDWIMKEDYELVSTKPTRTSKVRQLLDTTDIQGEEFAKVIVQKLKDNKQMGLQ | -0.949 ± 0.16
28 | QWIQSKREDIVNQMTEACLNQSLDALLSRDFIMKEDYELVSTKPTRTSKVRQLLDTTDIQGEEFAKVIVQKLKDNKQMGLQ | -0.74 ± 0.18
29 | QWIQSKREDIVNQMTEACLNQSLDALLSRDAIMKEDYELVSTKPTRTSKVRQLLDTTDIQGEEFAKVIVQKLKDNKQMGLQ | -0.615 ± 0.089
30 | QWIQSKREDIVNQMTEACLNQSLDALLSRDNIMKEDYELVSTKPTRTSKVRQLLDTTDIQGEEFAKVIVQKLKDNKQMGLQ | -0.782 ± 0.35
31 | QWIQSKREDIVNQMTEACLNQSLDALLSRDLIEKEDYELVSTKPTRTSKVRQLLDTTDIQGEEFAKVIVQKLKDNKQMGLQ | 0.067 ± 0.11
32 | QWIQSKREDIVNQMTEACLNQSLDALLSRDLICKEDYELVSTKPTRTSKVRQLLDTTDIQGEEFAKVIVQKLKDNKQMGLQ | 0.115 ± 0.097
33 | QWIQSKREDIVNQMTEACLNQSLDALLSRDLIFKEDYELVSTKPTRTSKVRQLLDTTDIQGEEFAKVIVQKLKDNKQMGLQ | -0.555 ± 0.15
34 | QWIQSKREDIVNQMTEACLNQSLDALLSRDLIAKEDYELVSTKPTRTSKVRQLLDTTDIQGEEFAKVIVQKLKDNKQMGLQ | 0.199 ± 0.071
